According to article PMC3938055:

Key:
CENP-S-EGFP (human) = CENP-S-EGFP (human) (UniProt Q8N2Z9); test: FRET or BRET; acceptor photobleaching FRET at centromeres in living cells; EGFP donor, mCherry acceptor bleached in a 4-10 µm^2 region; E_FRET against EVAR of an unbleached region, Mann-Whitney rank-sum test
EGFP-CENP-S (human) = EGFP-CENP-S (human) (UniProt Q8N2Z9); test: as above

CENP-T-mCherry (from UniProt Q96BT3 1-561) (natural protein)
E FRET (CENP-S-EGFP (human)): 4.15 | ΔE (E FRET – EVAR) (CENP-S-EGFP (human)): 4.5 | E FRET (EGFP-CENP-S (human)): 3 | ΔE (E FRET – EVAR) (EGFP-CENP-S (human)): 4.5
